The values that follow come from patent US20210403552A1 (SHANGHAI GENBASE BIOTECHNOLOGY, published 2021).

Experiment [1] deals with T1, human CLDN18.2 (human).
T1 construct: over-expressed on HEK293T or OCUM-1 cells by lentivirus; KATO-III and NUGC4 gastric cancer cells express it naturally; also called hCLDN18.2; hCLDNA18.2
Description: imaging cytometry (% fluorescent cells), HEK293-hCLDN18.2 cells. An excerpt: (§1) HEK293T-hCLDN18.2 and OCUM-1-hCLDN18.2 expressing human CLDN18.2 (hCLDN18.2), or HEK293T-mCLDN18.2 expressing mouse CLDN18.2 (mCLDN18.2) and the corresponding negative control cell line HEK293T were used; or HEK293T-hCLDN18.1 and CHOS-hCLDN18.1 expressing human CLDN18.1 (hCLDN18.1) were used. DyLight488 goat anti-mouse IgG (Abcam, Catalog No. ab97015) or DyLight488 goat anti-human IgG (Abcam, Catalog No. ab97003) was used as secondary antibody. Binding curves were generated by using the following method.
(§2) 10,000 cells were plated in 100 μL of DMEM containing 10% FBS per well in a flat-bottomed 96-well plate. After the cells adhered or were settled to the bottom of the wells overnight, the supernatant was removed on the next day. 3-Fold gradient dilution of antibody was performed by diluting 1/3 of the total volume (i.e., 100 μL) in 200 μL of DMEM. 100 μL of the diluted antibody (the supernatants of fused clones or subclones was used in the screening) was added to each well of the cell plate, 100 μL of DMEM was added to the corresponding negative control well, and incubation was carried out for 1 hour at room temperature. After removing the supernatant, 100 μL of secondary antibody (5 μg/mL, diluted in DMEM) was added to each well, and incubated at room temperature for 0.5 hours. The supernatant was removed after staining, followed by washing with PBS once. 100 μL of PBS was added to each well, and then reading was carried out on the cytometer.
(§3) A full-field scanning cytometer (Nexcelom, Celigo® Image Cytometer) was used to measure the readings of the experimental plate. During the measurement, high-speed scanning imaging of the cells in the well was simultaneously performed in the green fluorescent channel corresponding to the secondary antibody and in the bright field channel. The cells that bound the antibody were counted in the image obtained from the green fluorescent channel under the parameters set in accordance with the morphology and fluorescence intensity of the fluorescently labeled cells, and the adhered cells were counted in the image obtained from the bright field channel under the parameters set in accordance with the morphology of the cells.

Experiment [2] deals with T2, human CLDN18.1 (human, UniProt P56856 1-261).
T2 construct: over-expressed on HEK293T or CHOS cells by lentivirus; also called hCLDN18.1
T2 sequence (P56856 whole entry): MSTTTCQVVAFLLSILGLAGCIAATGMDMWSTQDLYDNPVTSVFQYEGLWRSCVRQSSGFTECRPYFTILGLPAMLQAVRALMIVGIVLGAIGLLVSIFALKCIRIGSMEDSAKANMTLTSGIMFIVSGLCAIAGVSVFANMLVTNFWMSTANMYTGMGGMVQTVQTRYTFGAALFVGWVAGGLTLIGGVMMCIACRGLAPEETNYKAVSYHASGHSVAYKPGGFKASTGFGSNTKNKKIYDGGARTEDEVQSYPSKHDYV
Description: imaging cytometry (% fluorescent cells), HEK293-hCLDN18.1 cells.
Text: as §1
(§4) 10,000 cells were plated in 100 μL of DMEM containing 10% FBS per well in a flat-bottomed 96-well plate. After the cells adhered or were settled to the bottom of the wells overnight, the supernatant was removed on the next day. […] 100 μL of PBS was added to each well, and then reading was carried out on the cytometer.
(§5) A full-field scanning cytometer (Nexcelom, Celigo® Image Cytometer) was used to measure the readings of the experimental plate. […] The cells that bound the antibody were counted in the image obtained from the green fluorescent channel under the parameters set in accordance with the morphology and fluorescence intensity of the fluorescently labeled cells, and the adhered cells were counted in the image obtained from the bright field channel under the parameters set in accordance with the morphology of the cells.

A further experiment deals with T3, mouse CLDN18.2 (mouse, UniProt P56857 10-264).
T3 construct: over-expressed on HEK293T cells by lentivirus; also called mCLDN18.2; murine CLDN18.2
T3 chain: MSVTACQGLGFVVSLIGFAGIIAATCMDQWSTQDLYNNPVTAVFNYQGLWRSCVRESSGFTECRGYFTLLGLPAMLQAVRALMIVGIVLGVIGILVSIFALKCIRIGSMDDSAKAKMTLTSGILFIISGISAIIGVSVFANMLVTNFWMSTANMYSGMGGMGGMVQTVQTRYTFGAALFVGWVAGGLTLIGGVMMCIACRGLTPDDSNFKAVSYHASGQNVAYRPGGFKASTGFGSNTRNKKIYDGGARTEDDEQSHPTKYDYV
Description: imaging cytometry (% fluorescent cells), HEK293-mCLDN18.2 cells.
Text: as §1, §2, §3

Experiment [3] addresses T2, human CLDN18.1. The experiment in a line: imaging cytometry (% fluorescent cells), CHOS-hCLDN18.1 cells.
Text: as §1, §4, §5

The target in experiment [4] is T1, human CLDN18.2. Description: imaging cytometry (% fluorescent cells), OCUM1-hCLDN18.2 cells.
Text: as §1, §2, §3

B1: 1D10 (antibody, V domains shown)
VH: QVQLQQPGAELVKPGASVKLSCKASGYTFTSYWMHWVKQRPGQGLEWIGMIYPNSGSINYNEKFKNKATLTVDKSSSTAYMQLSSLTSEDSAVYFCSVYFDYWGQGTTLTVSS
VL: DIQGTQSPSSLSASLGERVSLTCRASQDIGSSLNWLQQEPDGTIKRLIYATSSLDSGVPKRFSVSRSGSDYSLTISSLESEDFVDYYCLQYASSPPTFGGGTKLEIK
notes: murine monoclonal antibody purified from hybridoma culture supernatant; also called ID10
One may read the EC50 as the midpoint of the concentration-response curve. A high value points to a less potent agent. B1: the EC50 with human CLDN18.2 [1] worked out at 0.018 µg/mL; with human CLDN18.1 [2], 0.041 µg/mL; with mouse CLDN18.2, 0.691 µg/mL; with human CLDN18.1 [3] it was 0.092 µg/mL; in the experiment with human CLDN18.2 [4] it was 0.026 µg/mL.
